Data from patent US20240190943A1 (HANGZHOU EXEGENESIS BIO, published 2024).
Blank lines part the entries; values can stand above or below the binder they belong to.

Assays:
angiopoietin 2 = molecular target: T1, angiopoietin 2 (UniProt O15123 19-496, limits assumed); test: Ang2 ELISA, shown relative to Exg102-04; middle bar of each group
T1 construct: also called Ang2; ANGPT2
T1 sequence (looked up): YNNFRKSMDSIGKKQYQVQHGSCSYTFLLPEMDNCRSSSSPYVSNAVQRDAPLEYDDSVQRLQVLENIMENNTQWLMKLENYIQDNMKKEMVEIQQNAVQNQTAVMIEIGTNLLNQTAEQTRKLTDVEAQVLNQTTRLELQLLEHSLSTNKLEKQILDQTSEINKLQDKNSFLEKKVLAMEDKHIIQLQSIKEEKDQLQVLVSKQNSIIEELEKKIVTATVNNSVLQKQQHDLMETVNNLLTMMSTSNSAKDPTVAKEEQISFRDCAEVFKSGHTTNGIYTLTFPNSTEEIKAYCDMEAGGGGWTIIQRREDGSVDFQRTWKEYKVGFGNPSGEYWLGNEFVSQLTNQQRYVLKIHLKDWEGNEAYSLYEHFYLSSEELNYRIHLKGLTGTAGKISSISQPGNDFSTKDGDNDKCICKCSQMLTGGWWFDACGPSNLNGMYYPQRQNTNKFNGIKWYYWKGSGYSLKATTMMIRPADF

VEGF-A = molecular target: T2, VEGF-A (UniProt P15692-4 27-191, limits assumed); test: VEGF-A binding ELISA (OD450), titration in pM of the product of plasmid-transfected cells
T2 construct: also called rVEGF; vascular endothelial growth factor
T2 sequence (P15692 other isoform, or with tags, fused parts or gaps limits assumed): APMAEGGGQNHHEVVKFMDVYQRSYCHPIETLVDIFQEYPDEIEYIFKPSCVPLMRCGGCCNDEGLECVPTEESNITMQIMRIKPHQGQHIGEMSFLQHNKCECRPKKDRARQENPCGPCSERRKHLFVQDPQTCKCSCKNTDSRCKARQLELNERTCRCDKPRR

- binding result (angiopoietin 2): no binding
B1: Exg102-13 (other)
fusion polypeptide (Flt1 signal - VEGFR1 D2 - VEGFR2 D3 - Fc-Hinge - Ang BD): SDTGRPFVEMYSEIPEIIHMTEGRELVIPCRVTSPNITVTLKKFPLDTLIPDGKRIIWDSRKGFIISNATYKEIGLLTCEATVNGHLYKTNYLTHRQTNTIIDVVLSPSHGIELSVGEKLVLNCTARTELNVGIDFNWEYPSSKHQHKKLVNRDLKTQSGSEMKKFLSTLTIDGVTRSDQGLYTCAASSGLMTKKNSTFVRVHEKDKTHTCPPCPAPELLGGPSVGGGGGSGGGGGAQQEECEWDPWTCEHMGSGSATGGSGSTASSGSGSATHQEECEWDPWTCEHMLE
notes: Carries only the N-terminal 21 amino acids of the Fc (Fc-Hinger) and no full Fc; also called Exemplary polypeptide 4

- EC50 (read off the curve) (VEGF-A): ~0.3 nM
- binding result (angiopoietin 2): no binding
B2: control polypeptide without an Ang BD (Fc fusion)
chain: SDTGRPFVEMYSEIPEIIHMTEGRELVIPCRVTSPNITVTLKKFPLDTLIPDGKRIIWDSRKGFIISNATYKEIGLLTCEATVNGHLYKTNYLTHRQTNTIIDVVLSPSHGIELSVGEKLVLNCTARTELNVGIDFNWEYPSSKHQHKKLVNRDLKTQSGSEMKKFLSTLTIDGVTRSDQGLYTCAASSGLMTKKNSTFVRVHE
notes: Signal peptide left out; also called EXG102-02; EXG102-03-1; not shown: Fc fragment of human IgG
